FRET efficiency data for one molecule are collected here from publication doi:10.1101/2021.03.23.436655.

This assay has as its target fluorescent tagged eIF4E-3 (Drosophila melanogaster). Briefly: FRET or BRET. (In BRET a luciferase serves as donor, and the signal depends on an acceptor being close.)

B1: fluorescent tagged Me31B (FRET partner of eIF4E-3) (natural protein)
chain: MMTEKLNSGHTNLTSKGIINDLQIAGNTSDDMGWKSKLKLPPKDNRFKTTDVTDTRGNEFEEFCLKRELLMGIFEKGWERPSPIQEAAIPIALSGKDVLARAKNGTGKTGAYCIPVLEQIDPTKDYIQALVMVPTRELALQTSQICIELAKHLDIRVMVTTGGTILKDDILRIYQKVQLIIATPGRILDLMDKKVADMSHCRILVLDEADKLLSLDFQGMLDHVILKLPKDPQILLFSATFPLTVKNFMEKHLREPYEINLMEELTLKGVTQYYAFVQERQKVHCLNTLFSKLQINQSIIFCNSTQRVELLAKKITELGYCCYYIHAKMAQAHRNRVFHDFRQGLCRNLVCSDLFTRGIDVQAVNVVINFDFPRMAETYLHRIGRSGRFGHLGIAINLITYEDRFDLHRIEKELGTEIKPIPKVIDPALYVANVGASVGDTCNNSDLNNSANEEGNVSK
For B1, the FRET efficiency is 25%.
